A value given as a limit tells only on which side of the number the result lay.

GEF activity on Rab11A (Mant-GDP release), mutant (1000 nM) compared with WT SH3BP5 (52 nM) (fold decrease) and SH3BP5-mediated GEF activity (Mant-GDP release, kcat/Km), mutant compared with WT Rab11A (fold decrease) data for three molecules are collected here from PMC6138693, “Structural determinants of Rab11 activation by the guanine nucleotide exchange factor SH3BP5” (Nature Communications, 2018).

Some targets named below: Rab11A K13N (human) (UniProt P62491); Rab11A S40F (human) (UniProt P62491); Rab11A L38P (human) (UniProt P62491); Rab11A K41P (human) (UniProt P62491).
In assay [1] the target is WT Rab11A (1–211, C-term his) (human) (UniProt P62491).
Sequence of WT Rab11A (1–211, C-term his) (human) (P62491 1-211): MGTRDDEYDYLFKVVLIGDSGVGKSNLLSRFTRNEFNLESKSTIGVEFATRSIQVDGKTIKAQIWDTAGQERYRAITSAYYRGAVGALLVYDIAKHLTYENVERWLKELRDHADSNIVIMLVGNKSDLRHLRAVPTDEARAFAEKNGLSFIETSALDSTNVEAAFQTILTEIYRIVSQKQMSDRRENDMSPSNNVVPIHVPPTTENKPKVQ

Sequence of Rab11A K13N (human) (P62491 whole entry K13N): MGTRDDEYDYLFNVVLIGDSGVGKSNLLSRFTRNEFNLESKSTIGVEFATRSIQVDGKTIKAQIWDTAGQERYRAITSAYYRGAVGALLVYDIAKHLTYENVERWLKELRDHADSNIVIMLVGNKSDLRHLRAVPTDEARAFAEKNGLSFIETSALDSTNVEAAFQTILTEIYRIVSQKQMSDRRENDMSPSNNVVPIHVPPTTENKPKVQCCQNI

B1: SH3BP5 (LNQ52AAA) (natural protein)
chain: MDAALKRSRSEEPAEILPPARDEEEEEEEGMEQGLEEEEEVDPRIQGELEKAAASTDDINRRETELEDARQKFRSVLVEATVKLDELVKKIGKAVEDSKPYWEARRVARQAQLEAQKATQDFQRATEVLRAAKETISLAEQRLLEDDKRQFDSAWQEMLNHATQRVMEAEQTKTRSELVHKETAARYNAAMGRMRQLEKKLKRAINKSKPYFELKAKYYVQLEQLKKTVDDLQAKLTLAKGEYKMALKNLEMISDEIHERRRSSAMGPRGCGVGAEGSSTSVEDLPGSKPEPDAISVASEAFEDDSCSNFVSEDDSETQSVSSFSSGPTSPSEMPDQFPAVVRPGSLDLPSPVSLSEFGMMFPVLGPRSECSGASSPECEVERGDRAEGAENKTSDKANNNRGLSSSSGSGGSSKSQSSTSPEGQALENRMKQLSLQCSKGRDGIIADIKMVQIG
On to B1, for which the GEF activity on Rab11A (Mant-GDP release), mutant (1000 nM) compared with WT SH3BP5 (52 nM) (fold decrease) in assay [1] was more than 100.

B2: SH3BP5 (1–455), full-length (natural protein)
chain: MDAALKRSRSEEPAEILPPARDEEEEEEEGMEQGLEEEEEVDPRIQGELEKLNQSTDDINRRETELEDARQKFRSVLVEATVKLDELVKKIGKAVEDSKPYWEARRVARQAQLEAQKATQDFQRATEVLRAAKETISLAEQRLLEDDKRQFDSAWQEMLNHATQRVMEAEQTKTRSELVHKETAARYNAAMGRMRQLEKKLKRAINKSKPYFELKAKYYVQLEQLKKTVDDLQAKLTLAKGEYKMALKNLEMISDEIHERRRSSAMGPRGCGVGAEGSSTSVEDLPGSKPEPDAISVASEAFEDDSCSNFVSEDDSETQSVSSFSSGPTSPSEMPDQFPAVVRPGSLDLPSPVSLSEFGMMFPVLGPRSECSGASSPECEVERGDRAEGAENKTSDKANNNRGLSSSSGSGGSSKSQSSTSPEGQALENRMKQLSLQCSKGRDGIIADIKMVQIG
Turning to B2, the SH3BP5-mediated GEF activity (Mant-GDP release, kcat/Km), mutant compared with WT Rab11A (fold decrease) with Rab11A K13N (human), in the assay with Rab11A S40F (human), with Rab11A L38P (human) and in the assay with Rab11A K41P (human) was more than 100 in each case.

B3: SH3BP5 (LE250AK) (natural protein)
chain: MDAALKRSRSEEPAEILPPARDEEEEEEEGMEQGLEEEEEVDPRIQGELEKLNQSTDDINRRETELEDARQKFRSVLVEATVKLDELVKKIGKAVEDSKPYWEARRVARQAQLEAQKATQDFQRATEVLRAAKETISLAEQRLLEDDKRQFDSAWQEMLNHATQRVMEAEQTKTRSELVHKETAARYNAAMGRMRQLEKKLKRAINKSKPYFELKAKYYVQLEQLKKTVDDLQAKLTLAKGEYKMALKNAKMISDEIHERRRSSAMGPRGCGVGAEGSSTSVEDLPGSKPEPDAISVASEAFEDDSCSNFVSEDDSETQSVSSFSSGPTSPSEMPDQFPAVVRPGSLDLPSPVSLSEFGMMFPVLGPRSECSGASSPECEVERGDRAEGAENKTSDKANNNRGLSSSSGSGGSSKSQSSTSPEGQALENRMKQLSLQCSKGRDGIIADIKMVQIG
B3 had a GEF activity on Rab11A (Mant-GDP release), mutant (1000 nM) compared with WT SH3BP5 (52 nM) (fold decrease) in assay [1] of more than 100.
